B1: Escherichia coli inducible lysine decarboxylase LdcI (enzyme, E. coli)
chain: MNVIAILNHMGVYFKEEPIRELHRALERLNFQIVYPNDRDDLLKLIENNARLCGVIFDWDKYNLELCEEISKMNENLPLYAFANTYSTLDVSLNDLRLQISFFEYALGAAEDIANKIKQTTDEYINTILPPLTKALFKYVREGKYTFCTPGHMGGTAFQKSPVGSLFYDFFGPNTMKSDISISVSELGSLLDHSGPHKEAEQYIARVFNADRSYMVTNGTSTANKIVGMYSAPAGSTILIDRNCHKSLTHLMMMSDVTPIYFRPTRNAYGILGGIPQSEFQHATIAKRVKETPNATWPVHAVITNSTYDGLLYNTDFIKKTLDVKSIHFDSAWVPYTNFSPIYEGKCGMSGGRVEGKVIYETQSTHKLLAAFSQASMIHVKGDVNEETFNEAYMMHTTTSPHYGIVASTETAAAMMKGNAGKRLINGSIERAIKFRKEIKRLRTESDGWFFDVWQPDHIDTTECWPLRSDSTWHGFKNIDNEHMYLDPIKVTLLTPGMEKDGTMSDFGIPASIVAKYLDEHGIVVEKTGPYNLLFLFSIGIDKTKALSLLRALTDFKRAFDLNLRVKNMLPSLYREDPEFYENMRIQELAQNIHKLIVHHNLPDLMYRAFEVLPTMVMTPYAAFQKELHGMTEEVYLDEMVGRINANMILPYPPGVPLVMPGEMITEESRPVLEFLQMLCEIGAHYPGFETDIHGAYRQADGRYTVKVLKEESKK
notes: LdcI (CadA), inducible lysine decarboxylase of E. coli; wing domain 1-129, core domain 130-563, CTD 564-715; Decamer of two pentameric rings; The whole enzyme (715 residues) is likely; PLP cofactor was in the buffers; also called CadA; LdcIa (at pH 6.2); copies: 10
B2: Escherichia coli biosynthetic lysine decarboxylase LdcC (enzyme, E. coli)
chain: MNIIAIMGPHGVFYKDEPIKELESALVAQGFQIIWPQNSVDLLKFIEHNPRICGVIFDWDEYSLDLCSDINQLNEYLPLYAFINTHSTMDVSVQDMRMALWFFEYALGQAEDIAIRMRQYTDEYLDNITPPFTKALFTYVKERKYTFCTPGHMGGTAYQKSPVGCLFYDFFGGNTLKADVSISVTELGSLLDHTGPHLEAEEYIARTFGAEQSYIVTNGTSTSNKIVGMYAAPSGSTLLIDRNCHKSLAHLLMMNDVVPVWLKPTRNALGILGGIPRREFTRDSIEEKVAATTQAQWPVHAVITNSTYDGLLYNTDWIKQTLDVPSIHFDSAWVPYTHFHPIYQGKSGMSGERVAGKVIFETQSTHKMLAALSQASLIHIKGEYDEEAFNEAFMMHTTTSPSYPIVASVETAAAMLRGNPGKRLINRSVERALHFRKEVQRLREESDGWFFDIWQPPQVDEAECWPVAPGEQWHGFNDADADHMFLDPVKVTILTPGMDEQGNMSEEGIPAALVAKFLDERGIVVEKTGPYNLLFLFSIGIDKTKAMGLLRGLTEFKRSYDLNLRIKNMLPDLYAEDPDFYRNMRIQDLAQGIHKLIRKHDLPGLMLRAFDTLPEMIMTPHQAWQRQIKGEVETIALEQLVGRVSANMILPYPPGVPLLMPGEMLTKESRTVLDFLLMLCSVGQHYPGFETDIHGAKQDEDGVYRVRVLK
notes: LdcC, biosynthetic lysine decarboxylase of E. coli; Decamer; PLP cofactor was in the buffers; also called constitutive lysine decarboxylase; copies: 10
B3: LdcIC chimera (LdcI with the C-terminal β-sheet of LdcC) (enzyme, E. coli, UniProt P0A9H3 1-630, looked up)
chain: MNVIAILNHMGVYFKEEPIRELHRALERLNFQIVYPNDRDDLLKLIENNARLCGVIFDWDKYNLELCEEISKMNENLPLYAFANTYSTLDVSLNDLRLQISFFEYALGAAEDIANKIKQTTDEYINTILPPLTKALFKYVREGKYTFCTPGHMGGTAFQKSPVGSLFYDFFGPNTMKSDISISVSELGSLLDHSGPHKEAEQYIARVFNADRSYMVTNGTSTANKIVGMYSAPAGSTILIDRNCHKSLTHLMMMSDVTPIYFRPTRNAYGILGGIPQSEFQHATIAKRVKETPNATWPVHAVITNSTYDGLLYNTDFIKKTLDVKSIHFDSAWVPYTNFSPIYEGKCGMSGGRVEGKVIYETQSTHKLLAAFSQASMIHVKGDVNEETFNEAYMMHTTTSPHYGIVASTETAAAMMKGNAGKRLINGSIERAIKFRKEIKRLRTESDGWFFDVWQPDHIDTTECWPLRSDSTWHGFKNIDNEHMYLDPIKVTLLTPGMEKDGTMSDFGIPASIVAKYLDEHGIVVEKTGPYNLLFLFSIGIDKTKALSLLRALTDFKRAFDLNLRVKNMLPSLYREDPEFYENMRIQELAQNIHKLIVHHNLPDLMYRAFEVLPTMVMTPYAAFQKELHGEVETIALEQLVGRINANMILPYPPGVPLVMPGEMITEESRPVLEFLQMLCEIGAHYPGFETDIHGAKQDEDGVYRVRVLKMAG
notes: E. coli LdcI up to the first exchanged stretch; E. coli LdcC, first strand region of the C-terminal β-sheet; E. coli LdcI between the two exchanged stretches; E. coli LdcC from 697 to the C-terminus, second strand region of the C-terminal β-sheet; Synthetic ldcIC gene of 2148 bp (GenScript) in the pET-TEV vector; source: E. coli Rosetta 2 (DE3), purified (Ni-NTA, TEV cleavage, second Ni-NTA, …)
B4: Escherichia coli AAA+ ATPase RavA (enzyme)
chain: not shown
notes: RavA, AAA+ ATPase of E. coli; It was mixed in the presence of 2 mM ADP and 10 mM MgCl2
B5: LdcCI chimera (LdcC with the C-terminal β-sheet of LdcI) (enzyme, E. coli, UniProt P52095 1-630, looked up)
chain: MNIIAIMGPHGVFYKDEPIKELESALVAQGFQIIWPQNSVDLLKFIEHNPRICGVIFDWDEYSLDLCSDINQLNEYLPLYAFINTHSTMDVSVQDMRMALWFFEYALGQAEDIAIRMRQYTDEYLDNITPPFTKALFTYVKERKYTFCTPGHMGGTAYQKSPVGCLFYDFFGGNTLKADVSISVTELGSLLDHTGPHLEAEEYIARTFGAEQSYIVTNGTSTSNKIVGMYAAPSGSTLLIDRNCHKSLAHLLMMNDVVPVWLKPTRNALGILGGIPRREFTRDSIEEKVAATTQAQWPVHAVITNSTYDGLLYNTDWIKQTLDVPSIHFDSAWVPYTHFHPIYQGKSGMSGERVAGKVIFETQSTHKMLAALSQASLIHIKGEYDEEAFNEAFMMHTTTSPSYPIVASVETAAAMLRGNPGKRLINRSVERALHFRKEVQRLREESDGWFFDIWQPPQVDEAECWPVAPGEQWHGFNDADADHMFLDPVKVTILTPGMDEQGNMSEEGIPAALVAKFLDERGIVVEKTGPYNLLFLFSIGIDKTKAMGLLRGLTEFKRSYDLNLRIKNMLPDLYAEDPDFYRNMRIQDLAQGIHKLIRKHDLPGLMLRAFDTLPEMIMTPHQAWQRQIKGMTEEVYLDEMVGRVSANMILPYPPGVPLLMPGEMLTKESRTVLDFLLMLCSVGQHYPGFETDIHGAYRQADGRYTVKVLKEESKK
notes: E. coli LdcC up to the first exchanged stretch; E. coli LdcI, first strand region of the C-terminal β-sheet; E. coli LdcC between the two exchanged stretches; E. coli LdcI from 697 to the C-terminus, second strand region of the C-terminal β-sheet; Synthetic ldcCI gene of 2154 bp (GenScript) in the pET-TEV vector; source: E. coli Rosetta 2 (DE3), purified (Ni-NTA, TEV cleavage, second Ni-NTA, …)

Key:
[1] = biological target: the molecule itself; assay: cryo-EM structure; LdcI alone, 2 mg/ml, 25 mM MES, 100 mM NaCl, 0.2 mM PLP, 1 mM DTT, pH 6.2; no ppGpp
[2] = biological target: the molecule itself; assay: cryo-EM structure; LdcC alone, 2 mg/ml, 25 mM HEPES, 100 mM NaCl, 0.2 mM PLP, 1 mM DTT, pH 7.2 (results say pH 7.5); no ppGpp
[3] = biological target: the molecule itself; assay: not stated; purified chimeras alone; decamers 'visually indistinguishable from the wild-type proteins'
[4] = biological target: B1; assay: negative stain EM; 0.4 mg/ml RavA mixed with 0.3 mg/ml LdcI, LdcC, LdcCI or LdcIC; 2 mM ADP, 10 mM MgCl2, 20 mM Hepes, 150 mM NaCl, pH 7.4; 10 min at room temperature; 2% uranyl acetate; conditions: both partners purified
[5] = biological target: B4; assay: as above; conditions: both partners purified

Binder: B1
stoichiometry N [1]: 10

Binder: B2
stoichiometry N [2]: 10

Binder: B3
stoichiometry N [3]: 10

Binder: B4
binding result [4]: binds

Binder: B5
stoichiometry N [3]: 10 | binding result [5]: binds

From article PMC4832331, “Structural insights into the Escherichia coli lysine decarboxylases and molecular determinants of interaction with the AAA+ ATPase RavA” (Scientific Reports, 2016)
